The record followed here is patent US12297449, “Engineered CAS9 systems for eukaryotic genome modification” (Sigma-Aldrich Co. LLC).

The data set has as its target T1, LrhCas9-NLS (Lactobacillus rhamnosus).
T1 chain: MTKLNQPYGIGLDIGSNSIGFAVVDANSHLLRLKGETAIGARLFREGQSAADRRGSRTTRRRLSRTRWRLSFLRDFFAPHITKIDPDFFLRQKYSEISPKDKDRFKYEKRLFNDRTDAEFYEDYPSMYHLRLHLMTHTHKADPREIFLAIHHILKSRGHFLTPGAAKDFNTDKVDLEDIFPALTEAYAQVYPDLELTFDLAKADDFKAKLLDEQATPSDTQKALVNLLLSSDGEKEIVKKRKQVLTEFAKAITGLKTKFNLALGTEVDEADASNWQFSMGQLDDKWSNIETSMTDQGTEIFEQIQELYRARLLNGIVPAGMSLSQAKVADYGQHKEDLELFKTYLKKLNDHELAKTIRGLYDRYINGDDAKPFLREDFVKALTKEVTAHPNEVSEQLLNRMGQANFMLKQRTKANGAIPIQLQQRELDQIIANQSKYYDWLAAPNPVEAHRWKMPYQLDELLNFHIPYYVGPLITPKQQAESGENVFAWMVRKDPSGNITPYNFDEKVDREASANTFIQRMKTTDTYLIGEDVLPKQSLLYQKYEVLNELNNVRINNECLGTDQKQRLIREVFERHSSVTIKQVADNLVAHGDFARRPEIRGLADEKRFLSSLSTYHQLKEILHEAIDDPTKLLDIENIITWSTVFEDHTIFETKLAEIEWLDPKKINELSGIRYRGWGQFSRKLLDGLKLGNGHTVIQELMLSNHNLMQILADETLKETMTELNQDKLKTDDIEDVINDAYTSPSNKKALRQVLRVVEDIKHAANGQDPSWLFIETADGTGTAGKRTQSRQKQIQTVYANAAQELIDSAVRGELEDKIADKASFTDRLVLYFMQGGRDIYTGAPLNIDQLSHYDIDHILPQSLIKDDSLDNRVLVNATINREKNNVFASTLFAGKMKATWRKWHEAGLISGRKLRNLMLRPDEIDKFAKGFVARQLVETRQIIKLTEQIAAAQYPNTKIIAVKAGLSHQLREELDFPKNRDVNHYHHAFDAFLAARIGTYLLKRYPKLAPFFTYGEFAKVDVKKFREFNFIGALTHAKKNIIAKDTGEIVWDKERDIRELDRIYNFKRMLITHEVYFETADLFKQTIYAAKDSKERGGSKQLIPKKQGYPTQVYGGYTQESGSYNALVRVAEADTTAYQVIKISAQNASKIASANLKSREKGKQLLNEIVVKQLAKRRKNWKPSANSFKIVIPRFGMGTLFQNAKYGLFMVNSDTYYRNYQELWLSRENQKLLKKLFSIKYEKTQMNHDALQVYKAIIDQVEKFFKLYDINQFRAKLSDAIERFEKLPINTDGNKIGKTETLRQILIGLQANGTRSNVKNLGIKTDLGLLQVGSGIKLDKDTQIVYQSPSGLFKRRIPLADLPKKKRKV
Put plainly: cell_activity; PAM NGAAA; K562. The following applies: tags: C-terminal SV40 NLS.

B1: Lrh POR target 1 sgRNA ; POR target 1 (ssRNA ; dsDNA)
RNA: GCUCGUACUGGCGAAUGCUGUCUCAGGUAGAUGUCAGAUCAAUCAGAAAUGAUUGAUCUGACAUCUACGAGUUGAGAUCAAACAAAGCUUCAGCUGAGUUUCAAUUUCUGAGCCCAUGUUGGGCCAUACAUAUGCCACCCGAGUGCAAAUCGGGUGGCUUUUUUU
DNA 1: GCTCGTACTGGCGAATGCTGGAAA
DNA 2: TTTCCAGCATTCGCCAGTACGAGC
In turn, B1 had an activity of 26.7 % indel.

B2: Lrh CAR target 2 sgRNA ; CAR target 2 (ssRNA ; dsDNA)
RNA: GUGAGAGUCUCCUCCCCAAUGGUCUCAGGUAGAUGUCAGAUCAAUCAGAAAUGAUUGAUCUGACAUCUACGAGUUGAGAUCAAACAAAGCUUCAGCUGAGUUUCAAUUUCUGAGCCCAUGUUGGGCCAUACAUAUGCCACCCGAGUGCAAAUCGGGUGGCUUUUUUU
DNA 1: GTGAGAGTCTCCTCCCCAATGGGAAA
DNA 2: TTTCCCATTGGGGAGGAGACTCTCAC
Turning to B2, the activity amounted to 27 % indel.
